T1: Tsg101 UEV-N16 complex (UEV domain with N16 covalently attached at C73) (human, UniProt Q99816 2-145, C73 covalently attached (disulfide linkage) to the activated sulfenamide form of N16 (tenatoprazole))
T1 construct: non-native glycine at the N-terminus (residue 1) left by TEV protease cleavage; Tsg101, ubiquitin E2 variant (UEV) domain, residues 2-145, as m1; same polypeptide as m1; also called N16-Tsg101 UEV complex; Tsg101-N16; source: E. coli Rosetta 2 (DE3) pLysS, purified as m1, then incubated with N16 in a 10:1 ratio (N16 excess); not shown: His6, N-terminal, cleaved
T1 sequence: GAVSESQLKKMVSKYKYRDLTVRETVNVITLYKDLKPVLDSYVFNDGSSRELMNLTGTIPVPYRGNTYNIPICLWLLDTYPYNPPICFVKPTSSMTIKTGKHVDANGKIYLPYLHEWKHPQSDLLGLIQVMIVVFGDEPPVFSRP

B1: Tsg101 UEV domain (residues 2–145) (domain or fragment, human)
chain: T1 sequence
notes: non-native glycine at the N-terminus (residue 1) left by TEV protease cleavage; Tsg101, ubiquitin E2 variant (UEV) domain, residues 2-145; the word human is printed for the full-length Tsg101 plasmids, not for this construct itself; also called Tsg101^2–145; 15N-Tsg101 UEV; not shown: His6, N-terminal, cleaved
B2: PTAP peptide (Ace-NFLQSRPEPTAPPEE-CONH2) (peptide)
peptide: Ac-NFLQSRPEPTAPPEE-NH2
notes: also called Gag PTAP peptide; source: synthetic peptide (Bio-Synthesis, Texas)

Key:
Details in all cases: both partners purified
wild-type ubiquitin = molecular target: T2, wild-type ubiquitin (UniProt P0CG48 1-76); assay: NMR titration; HSQC spectra of 15N-labelled Tsg101 UEV or UEV-N16 (200 μM) at 1:0, 1:0.5 and 1:1 ratio to unlabeled ubiquitin; 20 mM potassium phosphate, 50 mM NaCl, pH 5.8
T2 construct: ubiquitin, wild type, unlabeled, encoded in pET-21a; source: E. coli BL21-Gold(DE3), purified (acid precipitation, HiTrap SP ion exchange, S75 gel filtration)

[1] = molecular target: T1, Tsg101 UEV-N16 complex (UEV domain with …); assay: NMR titration; chemical shift perturbations of 15N-labelled Tsg101 UEV or UEV-N16 (200 μM) on addition of PTAP peptide at a final 1:1 ratio; 20 mM potassium phosphate, 50 mM NaCl, pH 5.8
[2] = molecular target: B1; assay: as above

## B1
wild-type ubiquitin
  binding result: binds

## B2
[1]
  binding result: binds
[2]
  binding result: binds
